Results from article doi:10.1101/2024.02.20.581179.
Values belong to the substance of their own block, whether it stands above or below them.

Experiments:
Assay in all cases: SEC
[1] = molecular target: GST-tagged A. carterae eIF4E-1a (not stated | Amphidinium carterae)
[2] = molecular target: GST-tagged mouse eIF4E-1 (not stated | mouse)
[3] = molecular target: GST-tagged A. carterae eIF4E-1d1 (not stated | Amphidinium carterae)
[4] = molecular target: GST-tagged A. carterae eIF4E-2a (not stated | Amphidinium carterae)

stoichiometry N [1]: 2
Substance: GST-tagged A. carterae eIF4E-1a

stoichiometry N [2]: 2
Substance: GST-tagged mouse eIF4E-1

stoichiometry N [3]: 2
Substance: GST-tagged A. carterae eIF4E-1d1

stoichiometry N [4]: 2
Substance: GST-tagged A. carterae eIF4E-2a
